# Test results published in the DeepSol protein solubility set.
# Assay: soluble on expression in E. coli; label from the status in PepcDB or PDB records
row,Sequence,soluble on expression in E. coli
1,MPPKKVSPGITVILIDAGSNMSVKDTETGKSAFENAINAADWIVSRKLFSKDPELFSVMAYNLDPKEYKTEVGGQTFNGVQCQNEKFTPASFDHLKFITKELQQNTEMIDPNFFKGVLGAVAVLKDQIESYPNPSGITLIVLTNGLNENIRQENFDLLVEAVSESNADLMIIGIDENPEYPASRVAELAETLEGRTYTFQNVAKMLSTFQARQKSERKYNKMWDIAPGIHLPVIFALKSEKSTALLKFKNADSEGNEMVRLEQMHVETDEVAPKDEFKSPVLEEKPKFQKNFKPVENIKTMHGSEILNFLKSIINASGYNFGKSVIMMDPEYLKEKYNDHNFNEGQTGGVLKLIQFTKRANILDSYLLDASAKTVLPALNSPKSGATKATVSLIEAMLSLRVAAICRYTFHAKSHVQLIALLPHQDEETGVFYLRSVKLPFSDDMRTLKFPKFSFDEEDEDLNKPTVAQLSAVDDLIDCMQLQEDEISSLVEGGMSDPKLQMQCHFLKSLVLHPNDTFENHSNRTNQILDQIMAPKRRVEAEHPEIFQKLGREFNLQPIQKTKRERVTVEPEDLQTMISEWTEKKQNMTQPDEVDDGASQKKKKKPNAKKLTRKEEVQMDIMEDGGASRVCSKILEMISNTCKFQPNGAVTEFFTLLVNELNVIRSVFVENSKCDEFNELLKKLKDEEDFEPFAEVLSEEKSCNPIDSSEVSMSEVSVANAAEFWEED,not soluble
2,MSLQIKVSQFGLNLAHAWATAASSAKKSRIVTFVKLTSSDGAFGFGESAPSSRYGETLETVTAFLAKIDPKQLSFDDVPGSMAYLDKLSSGDFAAKAAVNIALWDGAGKKARKPIYDLLGLGFTENKHITSYTIGIDAPEIIRQKVLEAEQYPVLKLKVGDKNDRETMAILRSIAPAKTVRIDGNEGWKTKEEALKNIEWFAQDKNIEFVEQPMPADSNPKDLAWLKERSPLPLYADESFFAVADVSLCVDCFHGVNVKLVKTAGISGAYEALQAAKKAGLKRMIGCMVESSVLIGAGAHLAELADHLDIDTNLLITNDPFQGTTAEKGIISFAKASEPCGLRVKATPSFVMEGHHHHHH,soluble
3,MSLTYLNHILVIEDDLDAAESLSDMLSIDGFQITTTASVQDAMELLESQRFGVILTDRHLPDGLIEHRLQEILEVSSKTPVIVVTGYSDLQAVILAFRQGISDYVIKPIIPEDLIQTVRRILERRVLEQHLQIEHAFAERIQSTAEAIILVIDFDGRVIHFNRFFTELTGWAQGDLIGENWFDRCIYPEDRDRLINVCDTMSRTDRYRGCTNRIRCKNGEAREIRWSNSKWSEADGGQQFILAIGIDVSDLAEATQRAVRAERLAAIGETVAALAHESRNAIQRINAASEVLAINIRGNVDSEEELSVVQRAASDLSTLLESVRAFAAPIQAKLECADLREIWRRSWDDLECKRSGRDVELVENATSCLHDVKVDVCRMEQLFRNLFLNALEASEGPVRIEIDCECNDEMVCLKVTDDGPGLTAEQSAHLFEPFYTTKPTGTGLGMPICQRIVEAHGGTIAAGNHLNGTEVAICVPRVKAAVLVSEGHHHHHH,soluble
4,MGSDKIHHHHHHMAEWAGGQGTQEQAVDKGPVTTDRPRPDRISPMNTARRLLRYLGHQRLPHVVVQIGCEILGAQRGALYLLDQNQEVTLIAQYPDDKDVQVPDDLDEARLSWHTLHDFLPQLVDCAHDHEARFHYCSGGDCWLTLSIPLQWEGQNIAVVQLSYKPDVTIDQTSMLGLVYEYAELAALTLVQHWRCIHPAHSSGTQAVPPSSLTNDYSFSSGVSLALAVSEAERARIARDLHDGARSAILGVQLHLEALRLACMQGDSLAIQDHLARGRAALDAIEQELSHIVRDLYPPQVGEADFPTVLVNLSERWSAATRIPVEYAFAPNIPVLETAQVIALYRIVQEALANCNRHAQASRVTISLACADDTLLLTVADNGRGGANLRGGGIGLLSMAQRAHAIGASFHIDSPPDQGTRIEVKLPLRRREPDVHVCSGDCHEGADE,not soluble
5,MRKFIISFCCYVFFIFTLAAQDKAPHYTVIVSLDAFRWDYPAMYDTPNLNQMAREGVKATMLPSYPASTFPNHYTLATGLVPDHNGIINNTFWDVKRRRQYSMGDPATRNNPDYYLGEPIWITAQKQGVKTGNVYWVGSDIAIKGGYPTYYREYAEKPRLTFEQRVDSTIALLEKPEAERPRLVMLYFEEPDGVTHHHGPRSVEAAAIIHRMDSLVGMLRQGIASLPFGKDVNLIVTADHGMTEISDDRVVDMNKYLRPEWCEAVDGRTPTSIFTKPEYRDSVYNALKDVPHIHVWKKEEIPAELNYGSSDRIGDIVVAPELGWQFTDVPRALKGAHGYFPQSPDMQVMFRACGPDFKAGYESKGFVNVDIYPLLAHLLKITPEKTDGQFERIKDILKDVSFLEHHHHHH,not soluble
6,MAMYEQRYNSPFLVHDDGPNAPLEHQFAISKLTFELGLLYYQKRTIPFIPLPETPLNEGPGHAVPDVILYDAVAEDTKVIIEVCQNNGQKNDLKKVIRLIEDTEYGILEGFVYNYKSREWFRYRKGDGGAATASSVSEVMGIDMGGFV,not soluble
7,MEELQDDYEDMMEENLEQEEYEDPDIPESQMEEPAAHDTEATATDYHTTSHPGTHKVYVELQELVMDEKNQELRWMEAARWVQLEENLGENGAWGRPHLSHLTFWSLLELRRVFTKGTVLLDLQETSLAGVANQLLDRFIFEDQIRPQDREELLRALLLKHSHAGELEALGGVKPAVLTRSGDPSQPLLPQHSSLETQLFCEQGDGGTEGHSPSGILEKIPPDSEATLVLVGRADFLEQPVLGFVRLQEAAELEAVELPVPIRFLFVLLGPEAPHIDYTQLGRAAATLMSERVFRIDAYMAQSRGELLHSLEGFLDCSLVLPPTDAPSEQALLSLVPVQRELLRRRYQSSPAKPDSSFYKGLDLNGGPDDPLQQTGQLF,soluble
8,MNKGRVTQIMGPVVDVKFDGGKLPEIYNALTVKQSNENGTSINLTFEVALHLGDDTVRTVAMSSTDGLVRGTEVEDTGKAISVPVGDATLGRVFNVLGDAIDLDGEVPADVRRDPIHRQAPAFEELSTKVEILETGIKVVDLLAPYIKGGKIGLFGGAGVGKTVLIQELINNIAQEHGGISVFAGVGERTREGNDLYHEMSDSGVIKKTAMVFGQMNEPPGARQRVALTGLTMAEHFRDEQGQDVLLFIDNIFRFTQAGSEVSALLGRMPSAVGYQPTLATEMGQLQERITSTNKGSITSIQAVYVPADDYTDPAPATTFAHLDATTNLERRLTQMGIYPAVDPLASTSRALSPEIVGEEHYEVARQVQQTLQRYKELQDIIAILGMDELSEEDKLVVHRARRIQFFLSQNFHVAEQFTGQKGSYVPVKETVRGFKEILEGKYDDLPEDAFRLVGGIEEVIENAKKMMA,not soluble
9,MAHHHHHHMAITLPKLKYALNALSPHISEETLSFHYNKHHAGYVNKLNGLIKDTPLANKSLTDILKESTGAIFNNAAQIWNHSFYWDSMGPNCGGEPHGEIKEKIQEDFGSFNNFKDQFSNVLCGHFGSGWGWLALNKNNKLVILQTHDAGNPIKENTGIPILTCDVWEHAYYIDYRNDRLSYVKAWWNLVNWNFANENLKNALNK,soluble
10,MGSDKIHHHHHHMDFKELFPEVITKQEVKQSEDYIIVEQDGHVLHFPKSSLTKRELYLLQMTPSLEDASSVDSQNPWYRYLVEGRGRLPQSHSAVQFIFIEHQFTLSEELKDFLSPLVINVETIMTINQTQSVMILNQDNFFNATELLTDILPTIENDFNTRLRCYFGNSWTHLQAVDWKELYEEEYKLFTLFLSHKAEQHYCRFPKMALWALANQSPMPSIKAKCLQHILDTSDTSAIIKALWQEQGNLAKTAKALFIHRNSLQYKLDKFTQSSGLNLKILDDLAYAYLISMDT,not soluble
11,MEVPSLFTNFFAVNNPDSPPARQKTKLRELEHRFWQEHLPGDDDDHSTAISSLAIVTGLTKAQVSRISIAFATLADLPELKALQQKLYHLDLSRLITISNELAGINPDNLAGADAILTEYLTATSPNQILPSPASIGRKIKEIRDLLDDARATGSRGTQDDSSFGVTFSPDGTAEIGASVDAVDGHIINDAVTQHAKKNDLTYGEAFSDILRNNIQVKVVLNLYTAKDLANAPVWASGIGWLDAKTGTFWSEKANKEQDMDAAAKISTDKHDPPPALRDALIGRDGTCRFPGCSVPALKTQADHRIPYEEGGETCLGGIGCLCQHHHNMKTDGRVTYLLDPFSGIIVWLMGDGTWAVSEPNGPLNPKNARWAQTVAQHRARHHKRWVKEDAKLEHHHHHH,not soluble
